Source: article PMC6736723

Target: Scl1.41 on the surface of M41-type GAS cells (MGAS6183 wild type and Δscl1::scl1.41) (Streptococcus pyogenes (group A Streptococcus), M41-type strain MGAS6183)

Row | Substance | reduction in GAS (WT M41) adherence to CAF-derived matrices after 30 min pre-incubation of the cells with rTnFn1-5, against untreated WT [%] | reduction in GAS (WT M41) adherence to CAF-derived matrices after 30 min pre-incubation of the cells with rTnFn6-8, against untreated WT [%]
1 | recombinant tenascin-C fibronectin type III repeats 1-5 (rTnFn1-5) (domain or fragment) | 70 | 
2 | recombinant tenascin-C fibronectin type III repeats 6-8 (rTnFn6-8) (domain or fragment) |  | 40
